The record followed here is the supplement of paper PMC7877785.

The series in a line: self-splicing fitness, log relative to wild type (ln ratio); higher = more splicing; Tetrahymena group I intron in knt gene, E. coli kanamycin selection, DiMSum; sequences stand for … in CUCUCU…GGAGGGAAAAGUUAUCAGGCAUGCACCUGGUAGCUAGUCUUUAAACCAAUAGAUUGCAUCGGUUUAAAAGGCAAGACCGUCAAAUUGCGGGAAAGGGGUCAACAGCCGUUCAGUACCAAGUCUCAGGGGAAACUUUGAGAUGGCCUUGCAAAGGGUAUGGUAAUAAGCUGACGGACAUGGUCCUAACCACGCAGCCAAGUCCUAAGUCAACAGAUCUUCUGUUGAUAUGGAUGCAGUUCACAGACUAAAUGUCGGUCGGGGAAGAUGUAUUCUUCUCAUAAGAUAUAGUCGGACCUCUCCUUAAUGGGAGCUAGCGGAUGAAGUGAUGCAACACUGGAGCCGCUGGGAACUAAUUUGUAUGCGAAAGUAUAUUGAUUAGUUUUGGAGUACUCGUGGUCG
Put shortly:
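Colonies from six replicate transformations of E. coli BL21(DE3) were pooled and amplicon-sequenced on an Illumina HiSeq 2500. The library placed an intron with all eight P1ex-region nucleotides randomised inside the knt kanamycin-resistance gene on pET-22b(+), and cells grew overnight at 37°C or 30°C on LB agar with or without 25 μg/mL kanamycin (plus 100 μg/mL carbenicillin, 50 μM IPTG, 0.2% rhamnose). Fitness is the DiMSum error-weighted combination of wild-type-normalised replicate fold changes, kanamycin versus none.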

± gives the uncertainty stated by the source.

On to AGAGAGCAAUAUUACGUCUG, for which the “self-splicing fitness (ln)” value is -4.03 ± 0.33 (30 °C) and -2.38 ± 0.31 (37 °C).
The corresponding values for AGAGAGCAAUAUUACGUGAG are -3.12 ± 0.17 and -2.9 ± 0.26.
For the sequence AGAGAGCAAUAUUACGUGGU, the “self-splicing fitness (ln)” value by setting is: (30 °C) -3.49 ± 0.29; (37 °C) -3.6 ± 0.37.
In the same order, the values of AGAGAGCAAUAUUACGUUCA are -2.39 ± 0.22 and -1.81 ± 0.22.
Take AGAUAGCAAUAUUACGAAAU: the “self-splicing fitness (ln)” value was -2.87 ± 0.13 (30 °C) and -0.838 ± 0.12 (37 °C).
The corresponding values for AGAUAGCAAUAUUACGACCA are -0.39 ± 0.16 and 1.11 ± 0.2.
Turning to AGAUAGCAAUAUUACGACUG, the “self-splicing fitness (ln)” value runs as follows: (30 °C) -1.38 ± 0.2; (37 °C) 0.221 ± 0.29.
With AGAUAGCAAUAUUACGAGUA, the “self-splicing fitness (ln)” value runs as follows: (30 °C) -1.76 ± 0.3; (37 °C) -1.33 ± 0.2.
The corresponding values for AGAUAGCAAUAUUACGAGUC are -2.64 ± 0.18 and -2.14 ± 0.21.
The corresponding values for AGAUAGCAAUAUUACGAUAU are -1.02 ± 0.11 and -0.119 ± 0.14.
In the same order, the values of AGAUAGCAAUAUUACGAUGC are -2.02 ± 0.15 and -0.736 ± 0.16.
As to AGAUAGCAAUAUUACGCAAC, the “self-splicing fitness (ln)” value (30 °C) was -2.05 ± 0.34 and the “self-splicing fitness (ln)” value (37 °C) is -1.39 ± 0.24.
As to AGAUAGCAAUAUUACGCAGU, the “self-splicing fitness (ln)” value reads like this: (30 °C) -2.55 ± 0.17; (37 °C) -1.49 ± 0.17.
In the case of AGAUAGCAAUAUUACGCCGC, the “self-splicing fitness (ln)” value by setting is: (30 °C) -3.03 ± 0.3; (37 °C) -2.04 ± 0.32.
As to AGAUAGCAAUAUUACGCGAG, the “self-splicing fitness (ln)” value by setting is: (30 °C) -1.22 ± 0.1; (37 °C) -1.03 ± 0.1.
In the same order, the values of AGAUAGCAAUAUUACGGAAA are -3.51 ± 0.37 and -2.34 ± 0.25.
In the case of AGAUAGCAAUAUUACGGAAC, where the note is “37 °C”, the “self-splicing fitness (ln)” value is -0.911 ± 0.3.
As for AGAUAGCAAUAUUACGGACC, the “self-splicing fitness (ln)” value is, setting by setting: (30 °C) -0.504 ± 0.15; (37 °C) -0.242 ± 0.12.
The corresponding values for AGAUAGCAAUAUUACGGACU are 0.201 ± 0.1 and -0.666 ± 0.093.
AGAUAGCAAUAUUACGGGAU: the “self-splicing fitness (ln)” value is, setting by setting: (30 °C) -1.24 ± 0.19; (37 °C) -1.21 ± 0.16.
The corresponding values for AGAUAGCAAUAUUACGUAGC are -2.88 ± 0.22 and -2.16 ± 0.24.
The corresponding values for AGAUAGCAAUAUUACGUUUA are -2.12 ± 0.13 and -1.43 ± 0.13.
In the same order, the values of AGCAAGCAAUAUUACGAACC are -0.794 ± 0.12 and 0.286 ± 0.2.
As to AGCAAGCAAUAUUACGAAGC, the “self-splicing fitness (ln)” value (30 °C) is -3.28 ± 0.31.
As for AGCAAGCAAUAUUACGAAUG, the “self-splicing fitness (ln)” value reads like this: (30 °C) -3.77 ± 0.18; (37 °C) -1.71 ± 0.13.
The corresponding values for AGCAAGCAAUAUUACGACAC are -1.21 ± 0.085 and -0.583 ± 0.11.
In the same order, the values of AGCAAGCAAUAUUACGACCU are 0.278 ± 0.082 and 0.39 ± 0.11.
In the same order, the values of AGCAAGCAAUAUUACGACGG are -2.35 ± 0.16 and -0.575 ± 0.13.
On to AGCAAGCAAUAUUACGAGUA, for which the “self-splicing fitness (ln)” value is, setting by setting: (30 °C) -1.67 ± 0.12; (37 °C) -0.688 ± 0.12.
The corresponding values for AGCAAGCAAUAUUACGAUCU are -0.189 ± 0.052 and 0.631 ± 0.077.
The corresponding values for AGCAAGCAAUAUUACGAUGA are -1.33 ± 0.085 and -0.569 ± 0.088.
The corresponding values for AGCAAGCAAUAUUACGCCAG are -2.09 ± 0.2 and -2.65 ± 0.44.
In the case of AGCAAGCAAUAUUACGCCGU, the “self-splicing fitness (ln)” value (30 °C) is -1.05 ± 0.11 and the “self-splicing fitness (ln)” value (37 °C) is -0.892 ± 0.11.
The corresponding values for AGCAAGCAAUAUUACGCGUA are -1.83 ± 0.083 and -0.167 ± 0.085.
In the same order, the values of AGCAAGCAAUAUUACGCGUC are -3.61 ± 0.15 and -3.06 ± 0.24.
In the same order, the values of AGCAAGCAAUAUUACGCUAA are -2.93 ± 0.2 and -1.69 ± 0.16.
With AGCAAGCAAUAUUACGCUAC, the “self-splicing fitness (ln)” value was -3.82 ± 0.29 (30 °C) and -3.16 ± 0.4 (37 °C).
In the same order, the values of AGCAAGCAAUAUUACGGAAC are -3.49 ± 0.43 and -2.04 ± 0.18.
The corresponding values for AGCAAGCAAUAUUACGGAUC are -2.73 ± 0.17 and -1.08 ± 0.16.
The corresponding values for AGCAAGCAAUAUUACGGUAA are -2.53 ± 0.17 and -1.38 ± 0.12.
Take AGCAAGCAAUAUUACGUAGC: the “self-splicing fitness (ln)” value was -3.34 ± 0.18 (30 °C) and -2.45 ± 0.19 (37 °C).
The corresponding values for AGCAAGCAAUAUUACGUGUA are -2.19 ± 0.07 and -1.49 ± 0.072.
The corresponding values for AGCCAGCAAUAUUACGAAGU are -4.11 ± 0.22 and -1.75 ± 0.12.
For the sequence AGCCAGCAAUAUUACGAAUG, the “self-splicing fitness (ln)” value (37 °C) is -2.45 ± 0.28.
On to AGCCAGCAAUAUUACGACUA, for which the “self-splicing fitness (ln)” value runs as follows: (30 °C) -1.99 ± 0.14; (37 °C) -1.5 ± 0.14.
In the same order, the values of AGCCAGCAAUAUUACGAGUG are -3.63 ± 0.2 and -2.13 ± 0.14.
The corresponding values for AGCCAGCAAUAUUACGAUAC are -3.73 ± 0.14 and -3.14 ± 0.14.
In the same order, the values of AGCCAGCAAUAUUACGAUGA are -3.75 ± 0.29 and -2.35 ± 0.24.
AGCCAGCAAUAUUACGAUGG: the “self-splicing fitness (ln)” value reads like this: (30 °C) -4.33 ± 0.26; (37 °C) -2.28 ± 0.19.
As for AGCCAGCAAUAUUACGCAAU, the “self-splicing fitness (ln)” value is -3.25 ± 0.2 (30 °C) and -1.35 ± 0.17 (37 °C).
In the same order, the values of AGCCAGCAAUAUUACGCCAA are -3.36 ± 0.19 and -1.75 ± 0.17.
In the same order, the values of AGCCAGCAAUAUUACGCCUA are -2.14 ± 0.25 and -1.07 ± 0.23.
Take AGCCAGCAAUAUUACGCCUU: the “self-splicing fitness (ln)” value was -1.59 ± 0.16 (30 °C) and -0.556 ± 0.2 (37 °C).
In the same order, the values of AGCCAGCAAUAUUACGCGCA are -0.445 ± 0.061 and 0.255 ± 0.074.
Consider AGCCAGCAAUAUUACGCGCG, for which the “self-splicing fitness (ln)” value (30 °C) was -1.15 ± 0.075 and the “self-splicing fitness (ln)” value (37 °C) is -0.281 ± 0.076.
The corresponding values for AGCCAGCAAUAUUACGCGGG are -3.29 ± 0.19 and -2.91 ± 0.28.
In the case of AGCCAGCAAUAUUACGGAGC, the “self-splicing fitness (ln)” value reads like this: (30 °C) -2.39 ± 0.1; (37 °C) -1.83 ± 0.11.
The corresponding values for AGCCAGCAAUAUUACGGCGG are -2 ± 0.1 and -1.1 ± 0.15.
Regarding AGCCAGCAAUAUUACGGGCA, the “self-splicing fitness (ln)” value runs as follows: (30 °C) -1.78 ± 0.14; (37 °C) -0.459 ± 0.13.
The corresponding values for AGCCAGCAAUAUUACGGGUU are -3.25 ± 0.15 and -3.81 ± 0.25.
In the same order, the values of AGCCAGCAAUAUUACGGUAA are -1.23 ± 0.069 and -0.323 ± 0.074.
In the same order, the values of AGCCAGCAAUAUUACGGUUC are -4.47 ± 0.19 and -3.66 ± 0.27.
Regarding AGCCAGCAAUAUUACGGUUU, the “self-splicing fitness (ln)” value runs as follows: (30 °C) -3.43 ± 0.2; (37 °C) -2.04 ± 0.18.
The corresponding values for AGCCAGCAAUAUUACGUACC are -2.95 ± 0.25 and -0.263 ± 0.13.
The corresponding values for AGCCAGCAAUAUUACGUACG are -3.04 ± 0.17 and -2.65 ± 0.17.
Turning to AGCCAGCAAUAUUACGUCUG, the “self-splicing fitness (ln)” value runs as follows: (30 °C) -4.62 ± 0.25; (37 °C) -1.94 ± 0.17.
In the same order, the values of AGCCAGCAAUAUUACGUGAG are -2.79 ± 0.1 and -0.902 ± 0.11.
In the same order, the values of AGCCAGCAAUAUUACGUUUG are -3.47 ± 0.13 and -3.22 ± 0.23.
In the same order, the values of AGCGAGCAAUAUUACGAAAU are -2.79 ± 0.23 and -2.39 ± 0.42.
AGCGAGCAAUAUUACGACAC: under “30 °C”, the “self-splicing fitness (ln)” value is -1.34 ± 0.34.
As for AGCGAGCAAUAUUACGAGAU, the “self-splicing fitness (ln)” value reads like this: (30 °C) -4.2 ± 0.3; (37 °C) -2.15 ± 0.19.
In the case of AGCGAGCAAUAUUACGAUGA, where the note is “30 °C”, the “self-splicing fitness (ln)” value was -2.57 ± 0.44.
For AGCGAGCAAUAUUACGCCAU, the “self-splicing fitness (ln)” value is -4.12 ± 0.46 (30 °C) and -1.58 ± 0.18 (37 °C).
With AGCGAGCAAUAUUACGCCCU, the “self-splicing fitness (ln)” value runs as follows: (30 °C) -1.34 ± 0.35; (37 °C) -0.0906 ± 0.22.
AGCGAGCAAUAUUACGCCUA: the “self-splicing fitness (ln)” value is, setting by setting: (30 °C) -1.67 ± 0.18; (37 °C) -1.89 ± 0.2.
With AGCGAGCAAUAUUACGCCUC, the “self-splicing fitness (ln)” value (30 °C) is -1.82 ± 0.3.
In the case of AGCGAGCAAUAUUACGCGCU, under “30 °C”, the “self-splicing fitness (ln)” value is -1.6 ± 0.23.
